The results in this text go back to patent publication US20190225675A1 (TUFTS UNIVERSITY, published 2019).

Changes are numbered by the printed parent chain.

To fix the notation:
T1: Shiga-like toxin 2 (Stx2) (UniProt P09385 23-319; P09386 20-89)
T1 sequence 1: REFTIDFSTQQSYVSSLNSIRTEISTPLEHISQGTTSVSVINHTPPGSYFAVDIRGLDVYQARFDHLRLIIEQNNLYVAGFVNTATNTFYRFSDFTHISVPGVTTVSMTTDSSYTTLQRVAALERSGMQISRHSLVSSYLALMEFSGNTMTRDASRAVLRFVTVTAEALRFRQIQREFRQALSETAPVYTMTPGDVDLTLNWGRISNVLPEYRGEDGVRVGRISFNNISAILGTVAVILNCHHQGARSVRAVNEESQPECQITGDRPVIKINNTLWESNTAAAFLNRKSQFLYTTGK
T1 sequence 2: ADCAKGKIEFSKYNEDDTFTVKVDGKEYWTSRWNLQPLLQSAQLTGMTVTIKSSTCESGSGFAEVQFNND

B1: VNA-TcdA (toxin A binding heterodimer, AH3+AA6) (bispecific antibody)
chain: QGVQSQLQLVESGGGLVQPGGSLRLSCAASGFTLDYSSIGWFRQAPGKEREGVSCISSSGDSTKYADSVKGRFTTSRDNAKNTVYLQMNSLKPDDTAVYYCAAFRATMCGVFPLSPYGKDDWGKGTLVTVSSEPKTPKPQGGGGSGGGGSGGGGSQGVQSQVQLVESGGGLVQPGGSLRLSCAASGFTFSDYVMTWVRQAPGKGPEWIATINTDGSTMRDDSTKGRFTISRDNAKNTLYLQMTSLKPEDTALYYCARGRVISASAIRGAVRGPGTQVTVSSEPKTPKPQ
B2: scFv#7 (scFv)
scFv: SYELTQPPSMSVALGQTAKVTCQGDNLENFYVQWHQQKPGQAPVTVIFQDNKRPSGIPDRFSGSNSGNTATLTISGARTEDEADYYCQSGHSSIGGVFGSGTSLTVLGQPAAAGGGGSGGGGSGGGGSARQVQLQESGPSLVKPSQTLSLTCTVSGFSLTGNSVTWVRQAPGNVPEWLGGISRGGRTYYDTALKSRLSITRDTSKRQVSLSLSSVTTEDTAMYFCARSAYSTLYDYEYAADIYDWGPGLLVTVSSTSGAPVPYPDPLEPRAA
B3: JDO-E9 (VHH)
VHH: QVQLVESGGGLVRPGGSLRLSCVVSGFAYEMPMMGWYRQAPGNQRELVATIGTGGRMNYADSVKGRFTISRDNAKNTVYLQMNSLKPEDTAAYYCKIEFTNYWGQGTQVTVSS
B4: JDQ-B2 (VHH)
VHH: QVQLVESGGGLVQPGGSLRLSCTVSGSIFDLPGMNWYRQAPGAQRELVADISSDGRRTNYADSVKGRFTMSRDNAKKTVYLQMDSLKPDDTAVYYCNVKFTHHWGQGIQVTVSS
B5: JDQ-C5 (VHH)
VHH: B4 VHH with D30G, N35S, R56G, N59H, M70I, A75D
B6: JDQ-F9 (VHH)
VHH: QVQLVESGGGLVQDGGSLRLSCTTSGSIDSFNAIEWYRQAPGKQRELVASISSDGRRTNYADSVKGRFTISGDNAKNTVYLQMNSLKPEDTAVYYCHRPFTHYWGQGTQVTVSS
B7: Stx-A5 (VHH)
VHH: SGGGLVQPGGSLRLSCAALEFTLEDYAIAWFRQAPGKEREGVSCISKSGVTKYTDSVKGRFTVARDNAKSTVILQMNNLRPEDTAVYNCAAVRPVFVDSVCTLATRYTYWGEGTQVTVSS
B8: Stx2-G1 (VHH)
VHH: SGGGLVQPGESLRLSCVASASTFSTSLMGWVRQAPGKGLESVAEVRTTGGTFYAKSVAGRFTISRDNAKNTLYLQMNSLKAEDTGVYYCTAGAGPIATRYRGQGTQVTVSS
B9: Stx2-D10 (VHH)
VHH: TGGLVQAGGSLRLSCAASGVPFSDYTMAWFRQAPGKEREVVARITWRGGGPYYGNSGNGRFAISRDIAKSMVYLHMDSLKPEDTAVYYCAASRLRPALASMASDYDYWGQGTQVSVSS
B10: JIJ-F11 (VHH)
VHH: QVQLVESGGGLVQPGGSLRLSCAAPESIVNSRTMAWYRQAPGKQRERVATITTAGSPNYADSVKGRFAISRDNAKNTVYLQMNSLKPEDTAVYYCNTLLSTLPYGQGTQVTVSS
B11: JIJ-C11 (VHH)
VHH: QVQLVETGGGLVQPGGSLGLSCVVASGRSINNYGMGWYRQAPGKQRELVAQISSGGTTNYAGSVEGRFTISRDNVKKMVYLQMNSLKPEDTAVYYCNSLLRTFSWGQGTQVTVSS
B12: JIK-B8 (VHH)
VHH: B11 VHH with T7S, G27E, G62D, Y80H, M83V
B13: JIK-B10 (VHH)
VHH: QVQLVETGGGLVQPGGSLRLSCAASGFTFSSYRMSWYRQAAGKERDVVATITANGVPTGYADSVMGRFTISRDNAKNTVYLEMNSLNPEDTAVYYCNAPRLHTSVGYWGQGTQVTVSS
B14: JIK-F4 (VHH)
VHH: TGGGLVQAGGSLRLSCAASGRYAMGWFRQAPGKEREFVATISRSGAIREYADSVKGRFTISRDGAENTVYLEMNSLKPDDTAIYVCAEGRGATFNPEYAYWGQGTQVTVSS
B15: JIK-B12 (VHH)
VHH: QVQLVESGGGLVQAGNSLRLSCTASGVIFSIYTMGWFRQAPGKEREFVAAIGVADGTALVADSVTGRFTISRDNAKNTVYLHMNSLKPEDTAVYSCAAYLSPRVQSPYITDSRYQLWGQGTQVTVSS
B16: JIJ-E9 (VHH)
VHH: QVQLVETGGLVQPGGSLRLSCAASRSTTATIYSMNWYRQAPGKQRELVAGMTSDGQTNYATSVKGRFTISRDNAKNTVYLLMNSLKLEDTAVYYCYVKPWRLQGWDYWGQGTQVTVSS
B17: JIJ-B8 (VHH)
VHH: QVQLVESGGGLVQPGGSLSVSCAASGSIARPGAMAWYRQAPGKERELVASITPGGLTNYADSVTGRFTISRDNAKRTVYLQMNSLQPEDTAVYYCHARIIPLGLGSEYRDHWGQGTQVTVSS
B18: JIJ-D3 (VHH)
VHH: QVQLVETGGLVQPGGSLRLSCAASGLTFSSTAMAWFRQAPGKEREFVARISGAGITIYYSDSVKDRFTISRNNVENTVYLQMNSLKTEDTAVYYCAARRNTYTSDYNIPARYPYWGQGTQVTVSS
B19: JIJ-A12 (VHH)
VHH: QVQLVESGGGLVQPGGSLRLSCAASGIIFSIYTMGWYRQAPGKQRELVAAIPSGPSANATDSVGGRFTITRDNAENTVYLQMNDLKPEDTAVYYCNARRGPGIKNYWGQGTQVTVSS
B20: JHE-D9 (VHH)
VHH: QVQLVESGGGLVQPGGSLRLSCAASGFIFSLYTMRWHRQAPGKERELVATITSATGITNYADSVKGRFIISRDDAKKTGYLQMNSLKPEDTAVYYCNAVRTTVSRDYWGQGTQVTVSS
B21: JHD-B6 (VHH)
VHH: QVQLVESGGGLVQPGGSLRLSCAASGSSFSRYAMRWYRQAPGKQRELVANINSRGTSNYADSVKGRFTISRDNAKNTVYLQMNSLKPEDTAVYYCNAEWLGRSEPSWGQGTQVTVSS
B22: Stx-A4 (VHH)
VHH: SGGGLVQPGGSLRLSCAASGFTLGSYHIGWFRHPPGKEREGTSCLSSRGDYTKYAEAVKGRFTISRDNTKSTVYLQMNNLKPEDTGIYVCAAIRPVLSDSHCTLAARYNYWGQGTQVTVSS

T2 sequence (P18177 2-2366): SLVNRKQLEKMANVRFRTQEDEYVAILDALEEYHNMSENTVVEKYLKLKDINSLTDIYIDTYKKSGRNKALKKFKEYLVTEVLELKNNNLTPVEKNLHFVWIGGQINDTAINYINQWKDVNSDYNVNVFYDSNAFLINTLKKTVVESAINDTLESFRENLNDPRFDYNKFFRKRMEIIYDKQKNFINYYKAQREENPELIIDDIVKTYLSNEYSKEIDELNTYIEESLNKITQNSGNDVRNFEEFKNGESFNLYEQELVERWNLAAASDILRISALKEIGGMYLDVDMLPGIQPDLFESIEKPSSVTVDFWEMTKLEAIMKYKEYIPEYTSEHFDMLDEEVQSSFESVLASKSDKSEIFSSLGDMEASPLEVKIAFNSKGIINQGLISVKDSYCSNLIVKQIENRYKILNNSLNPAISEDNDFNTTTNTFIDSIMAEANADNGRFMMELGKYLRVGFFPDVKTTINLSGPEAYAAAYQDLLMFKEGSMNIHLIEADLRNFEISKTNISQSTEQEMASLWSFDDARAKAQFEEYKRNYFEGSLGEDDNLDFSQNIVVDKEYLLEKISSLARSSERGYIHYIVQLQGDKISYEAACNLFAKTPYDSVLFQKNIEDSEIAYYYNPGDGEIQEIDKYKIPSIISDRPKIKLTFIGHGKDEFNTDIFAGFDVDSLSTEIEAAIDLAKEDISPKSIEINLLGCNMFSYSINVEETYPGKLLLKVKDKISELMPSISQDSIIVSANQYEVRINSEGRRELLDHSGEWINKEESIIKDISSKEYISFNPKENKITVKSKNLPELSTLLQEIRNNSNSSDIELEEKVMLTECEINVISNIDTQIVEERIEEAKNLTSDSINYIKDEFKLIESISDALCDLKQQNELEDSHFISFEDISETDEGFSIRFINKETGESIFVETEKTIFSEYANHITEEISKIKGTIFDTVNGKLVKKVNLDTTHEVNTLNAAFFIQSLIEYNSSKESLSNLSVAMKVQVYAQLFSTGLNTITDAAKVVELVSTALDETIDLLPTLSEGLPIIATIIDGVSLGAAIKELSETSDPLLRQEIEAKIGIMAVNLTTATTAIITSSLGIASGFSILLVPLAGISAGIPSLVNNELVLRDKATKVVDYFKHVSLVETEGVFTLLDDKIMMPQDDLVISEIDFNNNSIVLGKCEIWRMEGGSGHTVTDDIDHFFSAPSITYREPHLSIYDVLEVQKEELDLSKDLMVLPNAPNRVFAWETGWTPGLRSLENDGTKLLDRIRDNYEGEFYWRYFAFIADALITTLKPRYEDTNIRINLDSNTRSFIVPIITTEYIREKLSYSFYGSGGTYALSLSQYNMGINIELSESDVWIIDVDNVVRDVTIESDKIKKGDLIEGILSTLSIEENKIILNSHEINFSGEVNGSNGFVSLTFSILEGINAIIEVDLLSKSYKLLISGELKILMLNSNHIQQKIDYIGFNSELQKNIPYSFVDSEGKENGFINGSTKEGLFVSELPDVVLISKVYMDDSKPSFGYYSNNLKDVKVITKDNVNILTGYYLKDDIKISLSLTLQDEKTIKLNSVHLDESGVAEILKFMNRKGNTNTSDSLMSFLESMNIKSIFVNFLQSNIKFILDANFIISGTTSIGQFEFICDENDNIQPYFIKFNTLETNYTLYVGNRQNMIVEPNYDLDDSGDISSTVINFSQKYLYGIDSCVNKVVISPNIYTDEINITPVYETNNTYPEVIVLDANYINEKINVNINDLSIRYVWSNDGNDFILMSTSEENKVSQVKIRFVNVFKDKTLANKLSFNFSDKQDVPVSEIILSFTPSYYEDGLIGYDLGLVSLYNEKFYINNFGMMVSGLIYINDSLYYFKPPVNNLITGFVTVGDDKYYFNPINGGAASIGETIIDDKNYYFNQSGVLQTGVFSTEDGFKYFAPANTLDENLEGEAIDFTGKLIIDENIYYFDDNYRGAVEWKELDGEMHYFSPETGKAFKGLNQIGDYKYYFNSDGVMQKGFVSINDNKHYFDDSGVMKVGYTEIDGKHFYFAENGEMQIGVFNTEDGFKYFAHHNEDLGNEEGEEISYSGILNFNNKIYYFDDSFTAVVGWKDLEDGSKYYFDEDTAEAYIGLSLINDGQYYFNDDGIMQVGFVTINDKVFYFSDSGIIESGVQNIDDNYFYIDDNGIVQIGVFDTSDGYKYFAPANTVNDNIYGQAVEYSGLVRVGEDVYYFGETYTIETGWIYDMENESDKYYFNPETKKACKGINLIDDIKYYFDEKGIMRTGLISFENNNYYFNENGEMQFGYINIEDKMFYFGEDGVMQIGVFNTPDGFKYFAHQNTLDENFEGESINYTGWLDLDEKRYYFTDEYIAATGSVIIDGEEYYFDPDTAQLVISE

One test addresses T2, Clostridium difficile toxin B (TcdB) (Clostridium difficile, UniProt P18177 2-2366).
T2 construct: mature
Briefly: ELISA, toxin-coated plates, HRP-conjugated detection antibody. A general note: ELISA stands for enzyme-linked immunosorbent assay.
Take B1: the binding result is reported as “no binding (tested: up to 125 nM)”.

For the next test, the target named is T3, Botulinum neurotoxin serotype A1 (BoNT/A) holotoxin (Clostridium botulinum, UniProt P0DPI0 2-1296).
T3 construct: mature
Briefly: method not stated.
B2: the Kd (as a rule, the concentration at which binding is half-saturated) was approximately 1 nM.

A further test concerns the target T3, Botulinum neurotoxin serotype A1 …. Briefly: VHH selection; binding competition.
As to B3, the binding result is “binds”.
Still for that read-out and setting: under B4 stands “binds”; under B5, “binds”.
On the same count and under the same terms, under B6 stands “binds”.

In the next test the target is T1, Shiga-like toxin 2 (Stx2).
Test: not given
B7: the EC50 (read off the curve) (as a rule, the concentration giving half of the maximal effect) was approximately 0.8 nM.
Same read-out and setting: to B8 belongs approximately 0.1 nM.

The next test deals with T4, Clostridium difficile toxin A (TcdA) (Clostridium difficile, UniProt P16154 1-2710).
T4 construct: mature
Briefly: ELISA on plates coated with TcdA, HRP-conjugated detection antibody, A450.
Turning to B1, the half-maximal effective concentration (EC50 (read off the curve)) is approximately 2 nM.

In a further test the target is T1, Shiga-like toxin 2 (Stx2).
Test: not given
This is another data set of the same source.
On to B7, for which the half-maximal effective concentration (EC50 (read off the curve)) was approximately 0.8 nM.
With B9, the “EC50 (read off the curve)” value is approximately 0.3 nM.

The next test deals with anthrax protective antigen (PA) (Bacillus anthracis, UniProt P13423 30-764). Briefly: legend of FIG. 29A: VHHs identified that bind each target as indicated.
anthrax protective antigen (PA), sequence (P13423 30-764 limits assumed): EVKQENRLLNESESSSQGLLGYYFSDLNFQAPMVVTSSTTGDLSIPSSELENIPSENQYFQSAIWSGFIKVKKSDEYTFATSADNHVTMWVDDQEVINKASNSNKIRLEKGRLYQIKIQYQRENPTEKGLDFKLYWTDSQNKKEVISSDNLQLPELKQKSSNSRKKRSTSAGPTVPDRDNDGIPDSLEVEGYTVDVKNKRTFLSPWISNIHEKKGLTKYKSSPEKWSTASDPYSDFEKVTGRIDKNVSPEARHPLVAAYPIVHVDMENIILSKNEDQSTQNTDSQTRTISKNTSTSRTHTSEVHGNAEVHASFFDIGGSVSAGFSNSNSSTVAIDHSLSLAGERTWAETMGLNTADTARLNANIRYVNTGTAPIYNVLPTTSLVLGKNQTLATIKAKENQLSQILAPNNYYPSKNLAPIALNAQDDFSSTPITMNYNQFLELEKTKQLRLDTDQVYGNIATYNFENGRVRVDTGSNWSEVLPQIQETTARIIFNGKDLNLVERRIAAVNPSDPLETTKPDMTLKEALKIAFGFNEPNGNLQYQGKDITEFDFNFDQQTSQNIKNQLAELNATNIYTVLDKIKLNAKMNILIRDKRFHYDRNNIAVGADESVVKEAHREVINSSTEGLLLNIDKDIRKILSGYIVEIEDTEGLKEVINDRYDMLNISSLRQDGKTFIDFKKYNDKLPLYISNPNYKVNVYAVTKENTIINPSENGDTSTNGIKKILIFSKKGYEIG
Turning to B10, the binding result is recorded as “binds”.
On the same count and under the same terms, to B11 belongs “binds”; to B12, “binds”.
Regarding B13, the binding result is “binds”.
On the same count and under the same terms, to B14 belongs “binds”; to B15, “binds”; to B16, “binds”.
The same measure, in the same setting: under B17 stands “binds”; under B18, “binds”; under B19, “binds”.
Take B20: the binding result is given as “binds”.
The same measure, in the same setting: to B21 belongs “binds”.

In a further test the target is T1, Shiga-like toxin 2 (Stx2).
Test: not given
This is another data set of the same source.
For B22, the 50% effective concentration (EC50 (read off the curve)) was approximately 8 nM.
The same measure, in the same setting: under B7 stands approximately 0.8 nM.

Another test deals with T1, Shiga-like toxin 2 (Stx2).
Test: not given
This is another data set of the same source.
With B9, the concentration giving a half-maximal response (EC50 (read off the curve)) was approximately 0.3 nM.
The same measure, in the same setting: under B8 stands approximately 0.1 nM.
